Measurements taken from patent US20240124553A1.

Key:
Assay in all cases: flow cytometry, transfected 293T cells
[1] = target: CHIKV E2-E1 envelope glycoproteins (strain S27), E2 mutant L67A (chikungunya virus strain S27) (UniProt Q8JUX5)
[2] = target: CHIKV E2-E1 envelope glycoproteins (strain S27), E2 mutant T96A (chikungunya virus strain S27) (UniProt Q8JUX5)
[3] = target: CHIKV E2-E1 envelope glycoproteins (strain S27), E2 mutant T58A (chikungunya virus strain S27) (UniProt Q8JUX5)
[4] = target: CHIKV E2-E1 envelope glycoproteins (strain S27), E2 mutant H73A (chikungunya virus strain S27) (UniProt Q8JUX5)
[5] = target: CHIKV E2-E1 envelope glycoproteins (strain S27), E2 mutant H123A (chikungunya virus strain S27) (UniProt Q8JUX5)
[6] = target: CHIKV E2-E1 envelope glycoproteins (strain S27), E2 mutant A41S (chikungunya virus strain S27) (UniProt Q8JUX5)
[7] = target: CHIKV E2-E1 envelope glycoproteins (strain S27), E2 mutant L102A (chikungunya virus strain S27) (UniProt Q8JUX5)
[8] = target: CHIKV E2-E1 envelope glycoproteins (strain S27), E2 mutant A89S (chikungunya virus strain S27) (UniProt Q8JUX5)
[9] = target: CHIKV E2-E1 envelope glycoproteins (strain S27), E2 mutant A78S (chikungunya virus strain S27) (UniProt Q8JUX5)
[10] = target: CHIKV E2-E1 envelope glycoproteins (strain S27), E2 mutant G108A (chikungunya virus strain S27) (UniProt Q8JUX5)
[11] = target: CHIKV E2-E1 envelope glycoproteins (strain S27), E2 mutant I54A (chikungunya virus strain S27) (UniProt Q8JUX5)
[12] = target: CHIKV E2-E1 envelope glycoproteins (strain S27), E2 mutant C91A (chikungunya virus strain S27) (UniProt Q8JUX5)
[13] = target: CHIKV E2-E1 envelope glycoproteins (strain S27), E2 mutant G82A (chikungunya virus strain S27) (UniProt Q8JUX5)
[14] = target: CHIKV E2-E1 envelope glycoproteins (strain S27), E2 mutant F129A (chikungunya virus strain S27) (UniProt Q8JUX5)
[15] = target: CHIKV E2-E1 envelope glycoproteins (strain S27), E2 mutant K120A (chikungunya virus strain S27) (UniProt Q8JUX5)
[16] = target: CHIKV E2-E1 envelope glycoproteins (strain S27), E2 mutant G95A (chikungunya virus strain S27) (UniProt Q8JUX5)
[17] = target: CHIKV E2-E1 envelope glycoproteins (strain S27), E2 mutant H130A (chikungunya virus strain S27) (UniProt Q8JUX5)
[18] = target: CHIKV E2-E1 envelope glycoproteins (strain S27), E2 mutant T116A (chikungunya virus strain S27) (UniProt Q8JUX5)
[19] = target: CHIKV E2-E1 envelope glycoproteins (strain S27), E2 mutant F115A (chikungunya virus strain S27) (UniProt Q8JUX5)
[20] = target: CHIKV E2-E1 envelope glycoproteins (strain S27), E2 mutant Q49A (chikungunya virus strain S27) (UniProt Q8JUX5)
[21] = target: CHIKV E2-E1 envelope glycoproteins (strain S27), E2 mutant G98A (chikungunya virus strain S27) (UniProt Q8JUX5)
[22] = target: CHIKV E2-E1 envelope glycoproteins (strain S27), E2 mutant I37A (chikungunya virus strain S27) (UniProt Q8JUX5)
[23] = target: CHIKV E2-E1 envelope glycoproteins (strain S27), E2 mutant H62A (chikungunya virus strain S27) (UniProt Q8JUX5)
[24] = target: CHIKV E2-E1 envelope glycoproteins (strain S27), E2 mutant R86A (chikungunya virus strain S27) (UniProt Q8JUX5)
[25] = target: CHIKV E2-E1 envelope glycoproteins (strain S27), E2 mutant L46A (chikungunya virus strain S27) (UniProt Q8JUX5)
[26] = target: CHIKV E2-E1 envelope glycoproteins (strain S27), E2 mutant S124A (chikungunya virus strain S27) (UniProt Q8JUX5)
[27] = target: CHIKV E2-E1 envelope glycoproteins (strain S27), E2 mutant P75A (chikungunya virus strain S27) (UniProt Q8JUX5)
[28] = target: CHIKV E2-E1 envelope glycoproteins (strain S27), E2 mutant D43A (chikungunya virus strain S27) (UniProt Q8JUX5)
[29] = target: CHIKV E2-E1 envelope glycoproteins (strain S27), E2 mutant V113A (chikungunya virus strain S27) (UniProt Q8JUX5)
[30] = target: CHIKV E2-E1 envelope glycoproteins (strain S27), E2 mutant D132A (chikungunya virus strain S27) (UniProt Q8JUX5)
[31] = target: CHIKV E2-E1 envelope glycoproteins (strain S27), E2 mutant K47A (chikungunya virus strain S27) (UniProt Q8JUX5)
[32] = target: CHIKV E2-E1 envelope glycoproteins (strain S27), E2 mutant V50A (chikungunya virus strain S27) (UniProt Q8JUX5)
[33] = target: CHIKV E2-E1 envelope glycoproteins (strain S27), E2 mutant G57A (chikungunya virus strain S27) (UniProt Q8JUX5)

| Substance | Binding Reactivity (% WT) [1] [% WT] | Binding Reactivity (% WT) [2] [% WT] | Binding Reactivity (% WT) [3] [% WT] | Binding Reactivity (% WT) [4] [% WT] | Binding Reactivity (% WT) [5] [% WT] | Binding Reactivity (% WT) [6] [% WT] | Binding Reactivity (% WT) [7] [% WT] | Binding Reactivity (% WT) [8] [% WT] | Binding Reactivity (% WT) [9] [% WT] | Binding Reactivity (% WT) [10] [% WT] | Binding Reactivity (% WT) [11] [% WT] | Binding Reactivity (% WT) [12] [% WT] | Binding Reactivity (% WT) [13] [% WT] | Binding Reactivity (% WT) [14] [% WT] | Binding Reactivity (% WT) [15] [% WT] | Binding Reactivity (% WT) [16] [% WT] | Binding Reactivity (% WT) [17] [% WT] | Binding Reactivity (% WT) [18] [% WT] | Binding Reactivity (% WT) [20] [% WT] | Binding Reactivity (% WT) [21] [% WT] | other results |
| --- | --- | --- | --- | --- | --- | --- | --- | --- | --- | --- | --- | --- | --- | --- | --- | --- | --- | --- | --- | --- | --- |
| CHIKV mAb C9 (antibody) | 60.9 | 99.2 | 98.6 | 89.6 | 53.6 | 70.7 | 31.2 | 109 | 84.1 | 71.9 | 110 | 0.6 | 90.2 | 6.7 | 15.4 | 86.2 | 106 | 98.2 | 47 | 102 | Binding Reactivity (% WT) [19]: 4.3 % WT; Binding Reactivity (% WT) [22]: 30.4 % WT; Binding Reactivity (% WT) [23]: 93.1 % WT; Binding Reactivity (% WT) [24]: 121 % WT; Binding Reactivity (% WT) [25]: 1.7 % WT; Binding Reactivity (% WT) [26]: 116 % WT; Binding Reactivity (% WT) [27]: 98.5 % WT; Binding Reactivity (% WT) [28]: 11.1 % WT; Binding Reactivity (% WT) [29]: 81.8 % WT; Binding Reactivity (% WT) [30]: 94.4 % WT; Binding Reactivity (% WT) [31]: 84 % WT; Binding Reactivity (% WT) [32]: 76.7 % WT; Binding Reactivity (% WT) [33]: 109 % WT |
| CHIKV mAb CHKV-88 (antibody) | 84.6 | 103 | 81.2 | 91.8 | 61.5 | 89.8 | 61.4 | 118 | 126 | 71.1 | 116 | 4 | 91.5 | 25.1 | 82.3 | 89 | 110 | 110 | 87.1 | 106 | Binding Reactivity (% WT) [19]: 25.1 % WT; Binding Reactivity (% WT) [22]: 63.2 % WT; Binding Reactivity (% WT) [23]: 101 % WT; Binding Reactivity (% WT) [24]: 110 % WT; Binding Reactivity (% WT) [25]: 23.6 % WT; Binding Reactivity (% WT) [26]: 112 % WT; Binding Reactivity (% WT) [27]: 115 % WT; Binding Reactivity (% WT) [28]: 37.5 % WT; Binding Reactivity (% WT) [29]: 112 % WT; Binding Reactivity (% WT) [30]: 120 % WT; Binding Reactivity (% WT) [31]: 100 % WT; Binding Reactivity (% WT) [32]: 78.6 % WT; Binding Reactivity (% WT) [33]: 134 % WT |
| CHIKV mAb IM-CKV063 (antibody) | 62.1 | 111 | 88.7 | 84.2 | 44.2 | 51.1 | 24.1 | 84 | 99.1 | 59 | 102 | 1.5 | 91.1 | 3.9 | 13.1 | 88.9 | 91 | 104 | 55.4 | 99.9 | Binding Reactivity (% WT) [19]: 3.6 % WT; Binding Reactivity (% WT) [22]: 26 % WT; Binding Reactivity (% WT) [23]: 79.6 % WT; Binding Reactivity (% WT) [24]: 127 % WT; Binding Reactivity (% WT) [25]: 2.7 % WT; Binding Reactivity (% WT) [26]: 97.8 % WT; Binding Reactivity (% WT) [27]: 96.4 % WT; Binding Reactivity (% WT) [28]: 8.3 % WT; Binding Reactivity (% WT) [29]: 79.8 % WT; Binding Reactivity (% WT) [30]: 116 % WT; Binding Reactivity (% WT) [31]: 72.1 % WT; Binding Reactivity (% WT) [32]: 64.1 % WT; Binding Reactivity (% WT) [33]: 96.5 % WT |
| CHIKV mAb IM-CKV065 (antibody) | 54.1 | 113 | 93.5 | -0.9 | 30.8 | 33.8 | 4.7 | 111 | 107 | 34.8 | 80.8 | -2 | 104 | -1.1 | 0.4 | 92.6 | 104 | 103 | 37.3 | 112 | Binding Reactivity (% WT) [19]: -0.2 % WT; Binding Reactivity (% WT) [22]: 12.1 % WT; Binding Reactivity (% WT) [23]: 88.5 % WT; Binding Reactivity (% WT) [24]: 102 % WT; Binding Reactivity (% WT) [25]: -2.7 % WT; Binding Reactivity (% WT) [26]: 97.3 % WT; Binding Reactivity (% WT) [27]: 84.9 % WT; Binding Reactivity (% WT) [28]: 3.7 % WT; Binding Reactivity (% WT) [29]: 70.4 % WT; Binding Reactivity (% WT) [30]: 126 % WT; Binding Reactivity (% WT) [31]: 85.5 % WT; Binding Reactivity (% WT) [32]: 48.2 % WT; Binding Reactivity (% WT) [33]: 108 % WT |
| Mxra8-Fc (mouse Mxra8 extracellular domain fused to mouse IgG2b Fc) (Fc fusion) | 77.4 | 95.6 | 94.1 | 102 | 33.6 | 4.9 | 22.8 | 102 | 106 | 76.7 | 104 | 1 | 123 | 4.1 | 1.8 | 94.6 | 101 | 31.2 | 56.8 | 102 | Binding Reactivity (% WT) [22]: 36.2 % WT; Binding Reactivity (% WT) [23]: 102 % WT; Binding Reactivity (% WT) [24]: 91.5 % WT; Binding Reactivity (% WT) [25]: 4.8 % WT; Binding Reactivity (% WT) [26]: 92.8 % WT; Binding Reactivity (% WT) [27]: 86.7 % WT; Binding Reactivity (% WT) [28]: 36.2 % WT; Binding Reactivity (% WT) [29]: 78 % WT; Binding Reactivity (% WT) [31]: 102 % WT; Binding Reactivity (% WT) [32]: 67.8 % WT; Binding Reactivity (% WT) [33]: 106 % WT |
